Results from the supplement of paper PMC9876800.

Test system: peptide library, one residue held at a place counted from the S/T acceptor
Assay: relative phosphorylation of the sub-library (ratio to the mean residue at this position); higher = residue favoured
Method in brief: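 Relative sub-library phosphorylation is a ratio to the mean residue at the same position. Purified recombinant kinases were incubated under kinase-specific conditions with biotinylated degenerate peptide sub-libraries, each fixing one residue at one position around a central Ser/Thr, using 50 μM peptide and 50 μM ATP spiked with γ-32P-ATP for 90 min. Spots captured on streptavidin membranes were phosphorimaged and quantified by densitometry.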

Chain of WNK4, construct: aa1-444, human (Q96J92 1-444, looked up): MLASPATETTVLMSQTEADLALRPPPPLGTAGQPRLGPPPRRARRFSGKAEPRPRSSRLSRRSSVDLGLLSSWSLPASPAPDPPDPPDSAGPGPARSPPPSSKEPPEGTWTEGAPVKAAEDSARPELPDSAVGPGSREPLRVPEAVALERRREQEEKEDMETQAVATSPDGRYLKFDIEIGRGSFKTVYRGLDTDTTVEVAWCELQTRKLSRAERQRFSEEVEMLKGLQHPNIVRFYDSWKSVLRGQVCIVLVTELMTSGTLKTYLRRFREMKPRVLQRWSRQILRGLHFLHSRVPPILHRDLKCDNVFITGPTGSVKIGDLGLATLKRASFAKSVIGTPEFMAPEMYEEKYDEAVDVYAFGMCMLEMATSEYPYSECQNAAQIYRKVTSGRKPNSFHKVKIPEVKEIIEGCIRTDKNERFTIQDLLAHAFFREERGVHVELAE
Chain of CDKL5, construct: aa1-352, mouse (Q3UTQ8 1-352, looked up): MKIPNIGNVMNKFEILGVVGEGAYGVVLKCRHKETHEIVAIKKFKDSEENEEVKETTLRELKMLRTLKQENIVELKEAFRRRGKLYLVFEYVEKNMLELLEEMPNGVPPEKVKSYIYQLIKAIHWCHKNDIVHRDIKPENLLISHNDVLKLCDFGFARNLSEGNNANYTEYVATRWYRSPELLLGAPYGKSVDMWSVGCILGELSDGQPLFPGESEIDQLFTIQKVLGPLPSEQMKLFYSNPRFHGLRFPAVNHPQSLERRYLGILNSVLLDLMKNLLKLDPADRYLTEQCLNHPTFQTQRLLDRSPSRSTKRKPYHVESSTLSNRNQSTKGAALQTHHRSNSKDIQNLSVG
Chain of HASPIN, construct: aa452-798, human (Q8TF76 452-798, looked up): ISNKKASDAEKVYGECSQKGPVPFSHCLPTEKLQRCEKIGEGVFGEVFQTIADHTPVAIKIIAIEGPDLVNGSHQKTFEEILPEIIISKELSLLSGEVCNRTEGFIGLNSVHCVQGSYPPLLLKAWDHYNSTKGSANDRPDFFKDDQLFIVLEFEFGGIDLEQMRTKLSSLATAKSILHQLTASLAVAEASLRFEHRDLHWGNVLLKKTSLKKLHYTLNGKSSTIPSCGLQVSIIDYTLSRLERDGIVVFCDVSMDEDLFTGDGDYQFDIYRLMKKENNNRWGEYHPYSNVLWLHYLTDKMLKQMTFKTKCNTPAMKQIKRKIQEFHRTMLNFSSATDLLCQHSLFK
Chain of MAPK13, construct: Full length, human (O15264 whole entry, looked up): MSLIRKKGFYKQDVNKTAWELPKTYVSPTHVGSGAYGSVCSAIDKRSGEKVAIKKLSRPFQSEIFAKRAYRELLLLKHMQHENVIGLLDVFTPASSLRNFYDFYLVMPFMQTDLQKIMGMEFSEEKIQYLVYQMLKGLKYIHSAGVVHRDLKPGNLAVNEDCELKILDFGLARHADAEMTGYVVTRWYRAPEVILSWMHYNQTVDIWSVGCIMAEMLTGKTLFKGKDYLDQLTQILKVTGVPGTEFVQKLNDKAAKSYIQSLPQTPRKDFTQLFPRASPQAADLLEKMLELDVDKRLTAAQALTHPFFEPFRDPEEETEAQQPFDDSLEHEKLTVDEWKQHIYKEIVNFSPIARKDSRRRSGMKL

HASPIN, construct: aa452-798, human (from UniProt Q8TF76)
relative phosphorylation
Settings	at +1	at +2	at +3	at +4	at -1	at -2	at -3	at -4	at -5
A fixed	0.379	1.04	0.824	0.822	0.515	2.18	0.883	0.899	0.836
D fixed	0.166	0.469	0.344	0.766	0.155	0.679	0.544	0.634	0.517
E fixed	0.161	0.359	0.28	0.404	0.158	0.483	0.577	0.767	0.526
F fixed	0.587	0.877	0.984	0.829	0.354	0.76	0.749	0.936	0.812
G fixed	0.467	0.751	1.02	1.03	0.615	1.17	1.1	0.985	0.887
H fixed	0.682	1.36	1.09	1.14	0.606	0.783	1.11	0.964	1.01
I fixed	0.779	0.69	0.652	0.819	0.286	0.734	0.693	0.844	2.68
K fixed	5.48	1.95	1.81	2.09	1.5	1.39	1.92	1.39	1.23
L fixed	0.621	0.783	0.797	0.749	0.294	0.464	0.694	1.54	0.645
M fixed	0.766	1.56	0.782	1.01	0.42	0.47	0.644	0.933	0.777
N fixed	0.295	0.762	0.801	0.86	0.427	0.737	0.941	0.738	0.763
P fixed	0.807	0.559	0.714	0.801	0.493	1.83	1.12	0.987	1.32
Q fixed	0.469	1.19	0.819	1	0.591	0.672	0.834	0.974	0.722
R fixed	2.67	1.78	3.05	1.65	9.3	1.83	2.79	1.57	1.33
V fixed	0.622	0.657	0.731	0.714	0.285	1.27	0.768	0.951	0.982
W fixed	0.51	1.25	1.09	1.33	0.313	0.749	0.82	0.918	0.922
Y fixed	1.54	0.971	1.21	0.979	0.683	0.809	0.807	0.969	1.05
pThr fixed	0.315	0.44	0.466	0.648	0.379	1.23	1.14	0.928	0.991
pTyr fixed	0.322	0.359	0.492	0.589	0.582	0.966	1.09	0.743	1.01

WNK4, construct: aa1-444, human (from UniProt Q96J92)
relative phosphorylation
Settings	at +1	at +2	at +3	at +4	at -1	at -2	at -3	at -4	at -5
A fixed	0.658	0.979	0.693	0.885	1.14	1.49	0.929	0.894	0.916
D fixed	0.249	0.57	0.62	0.54	0.287	0.305	0.389	0.579	0.489
E fixed	0.247	0.452	0.518	0.638	0.467	0.305	0.524	0.615	0.565
F fixed	1.13	0.977	2.1	1.3	0.788	0.821	0.748	0.864	1.21
G fixed	0.88	1.12	0.755	0.865	1.18	2.7	1.06	0.973	0.89
H fixed	0.813	0.973	1.35	1.12	1.05	1.54	1.16	1.21	1.21
I fixed	1.2	1.79	0.919	1.24	0.796	0.754	0.947	0.9	1.07
K fixed	0.918	0.872	1.06	1.29	1.66	1.03	1.64	1.6	1.27
L fixed	1.42	1.24	1.02	0.92	0.833	0.637	0.88	0.79	1.14
M fixed	1.96	1.31	1.04	1.1	1.58	0.708	1.02	0.924	0.986
N fixed	0.945	0.664	0.691	0.811	0.636	0.614	0.746	0.867	0.807
P fixed	0.242	0.318	0.514	0.713	0.452	1.31	0.93	0.674	0.628
Q fixed	1.17	0.522	0.565	0.673	0.952	0.573	0.741	0.88	0.639
R fixed	1.87	2.16	1.22	1.42	2.68	1.74	2.66	2.19	1.7
V fixed	0.973	1.16	0.848	0.969	0.812	0.972	0.959	0.877	0.891
W fixed	0.975	0.85	1.63	1.32	0.637	0.662	0.709	1.04	1.25
Y fixed	1.35	1.03	1.46	1.19	1.05	0.828	0.963	1.13	1.33
pThr fixed	0.386	0.407	0.388	0.617	0.444	0.683	0.809	0.732	0.731
pTyr fixed	0.565	0.537	0.612	0.674	0.727	0.471	0.708	0.527	0.764

MAPK13, construct: Full length, human (from UniProt O15264)
relative phosphorylation
Settings	at +1	at +2	at +3	at +4	at -1	at -2	at -3	at -4	at -5
A fixed	0.304	0.921	1.42	1.32	1.31	1.25	1.26	1.2	1.3
D fixed	0.162	0.572	1	1.09	1.11	0.486	1.09	1.46	1.26
E fixed	0.123	0.497	1.07	0.846	0.937	0.434	1.21	1.39	1.34
F fixed	0.148	0.663	0.413	1.06	0.768	0.457	1.04	0.933	0.923
G fixed	0.975	1.31	1.13	1.39	0.948	0.896	1.64	1.16	1.33
H fixed	0.143	0.694	0.936	0.884	0.927	0.405	0.773	0.879	1.05
I fixed	0.172	1.27	0.948	1.02	0.529	1.52	0.912	1.02	0.923
K fixed	0.148	0.751	0.57	0.665	0.681	0.25	0.522	0.662	0.855
L fixed	0.208	1.27	1.08	0.988	1.24	2.47	0.884	1.05	0.974
M fixed	0.182	1.04	0.659	1.28	1.77	1.49	1.14	1.22	1.16
N fixed	0.16	0.438	0.64	0.849	0.782	0.512	0.815	0.983	1.1
P fixed	12.9	1.05	2.58	0.942	2.31	3.75	1.08	0.999	0.962
Q fixed	0.613	0.805	0.853	0.754	1.15	0.554	0.999	1.04	0.915
R fixed	0.171	1.4	0.715	0.559	0.698	0.353	0.542	0.653	0.792
V fixed	0.353	2.28	1.18	1.41	0.635	1.53	1.24	0.939	0.652
W fixed	0.126	0.88	1.01	0.868	0.486	0.279	0.837	0.745	0.721
Y fixed	0.14	1.16	0.791	1.07	0.711	0.36	1.02	0.665	0.735
pThr fixed	0.158	1.67	0.939	0.853	0.309	0.376	1.14	1.49	1.7
pTyr fixed	0.126	0.994	0.837	0.652	0.729	0.339	1.07	1.38	1.19

CDKL5, construct: aa1-352, mouse (from UniProt Q3UTQ8)
relative phosphorylation
Settings	at +1	at +2	at +3	at +4	at -1	at -2	at -3	at -4	at -5
A fixed	4.03	0.798	1.01	0.928	1.15	0.826	0.761	1.03	1.12
D fixed	0.548	0.548	0.634	0.701	0.779	0.559	0.412	0.625	0.556
E fixed	0.528	0.56	0.567	0.593	0.581	0.543	0.427	0.652	0.543
F fixed	0.588	0.903	1.03	1.02	0.782	0.665	0.49	0.866	1.07
G fixed	1.51	0.936	1.03	1.07	1.22	1.06	0.65	1.04	1.24
H fixed	0.679	1.32	0.979	1.19	0.916	0.7	0.61	0.928	1.17
I fixed	0.584	0.853	0.914	0.915	0.812	0.681	0.559	0.9	0.958
K fixed	0.861	1.77	1.42	1.25	1.49	0.976	0.826	1.46	1.24
L fixed	0.564	0.851	0.896	0.925	1.04	0.817	0.516	0.938	0.974
M fixed	0.6	0.832	0.876	0.94	1.08	0.718	0.531	0.997	0.972
N fixed	0.592	0.924	0.895	1.01	0.737	0.575	0.6	0.861	0.8
P fixed	2.33	0.697	1.07	1.09	1.11	5.09	0.758	1.1	0.909
Q fixed	0.704	0.903	0.926	0.909	1.1	0.693	0.658	1.03	0.854
R fixed	1.06	2.48	1.71	1.51	1.49	1.05	7.65	1.9	1.65
V fixed	0.624	0.757	1.01	0.798	0.885	0.715	0.538	0.977	0.88
W fixed	0.631	0.828	0.852	1.17	1.04	0.691	0.515	0.847	1.07
Y fixed	0.563	1.04	1.19	0.987	0.794	0.645	0.499	0.844	0.994
pThr fixed	0.581	0.54	0.682	0.65	0.567	0.588	0.456	0.785	0.702
pTyr fixed	0.522	0.61	0.636	0.626	0.53	0.534	0.458	0.652	0.594
